Among the data in the Human Domainome abundance scans (Beltran et al. 2025) are abundance fitness values, retold here.

B1: Tripartite motif-containing protein 6, residues 93 to 134; numbered along this chain, Q9C030 (parent)
chain: KAVLCADHGEKLQLFCQEDGKVICWLCERSQEHRGHHTFLVE

± gives the uncertainty stated by the source.

In this series the parent is B1. As to the kind of experiment: abundance fitness (aPCA) (normalised: wild type 0, dead -1); higher = more abundant; growth selection in yeast, the domain comes from the species named. The conditions noted are these: Homo sapiens.
Consider KAVLCADHGEKLQLFCQEDGKVICWLCERSQEHLGHHTFLVE [R34L], for which the abundance fitness came to 0.092 ± 0.083. To KAVLCADHGEKLQLFCQEDGKVICWLCERSQEHYGHHTFLVE [R34Y] belongs 0.155 ± 0.1; to KAVLCADHGEKLQLFCQEDGKVICWLCERSQEHCGHHTFLVE [R34C], -0.14 ± 0.07. To KAVLCADHGEKLQLFCQEDGKVICWLCERSQEHKGHHTFLVE [R34K] belongs -0.111 ± 0.084.

As for KAVLCADHGEKLQLFCQEDGKVICWLCERSQEHSGHHTFLVE [R34S], the abundance fitness is -0.035 ± 0.068. KAVLCADHGEKLQLFCQEDGKVICWLCERSQEHMGHHTFLVE [R34M]: the abundance fitness was -0.052 ± 0.17. The result for KAVLCADHGEKLQLFCQEDGKVICWLCERSQEHQGHHTFLVE [R34Q] reads -0.041 ± 0.074; that for KAVLCADHGEKLQLFCQEDGKVICWLCERSQEHRGHHTFDVE [L40D], 0.091 ± 0.17; that for KAVLCADHGEKLQLFCQEDGKVICWLCERSQEHRGHHTFGVE [L40G], 0.052 ± 0.076. To KAVLCADHGEKLQLFCQEDGKVICWLCERSQEHRGHHTFEVE [L40E] belongs 0.009 ± 0.19; to KAVLCADHGEKLQLFCQEDGKVICWLCERSQEHRGHHTFCVE [L40C], -0.188 ± 0.13. To KAVLCADHGEKLQLFCQEDGKVICWLCERSQEHRGHHTFAVE [L40A] belongs 0.169 ± 0.073; to KAVLCADHGEKLQLFCQEDGKVICWLCERSPEHRGHHTFLVE [Q31P], -0.167 ± 0.13; to KAVLCADHGEKLQLFCQEDGKVICWLCERSVEHRGHHTFLVE [Q31V], 0.004 ± 0.074.

Take KAVLCADHGEKLQLFCQEDGKVICWLCERSEEHRGHHTFLVE [Q31E]: the abundance fitness is -0.159 ± 0.08. The result for KAVLCADHGEKLQLFCQEDGKVICWLCERSYEHRGHHTFLVE [Q31Y] reads -0.371 ± 0.27; that for KAVLCADHGEKLQLFCQEDGKVICWLCERSHEHRGHHTFLVE [Q31H], -0.125 ± 0.083.

Consider KAVLCADHGEKLQLFCQEDGKVICWLCERSTEHRGHHTFLVE [Q31T], for which the abundance fitness was -0.045 ± 0.073.

Take KAVLCADHGEKLQLFCQEDGKVICWLCERSDEHRGHHTFLVE [Q31D]: the abundance fitness was -0.228 ± 0.14. The result for KAVLCADHGEKLQLFCQEDGKVICWLCERSSEHRGHHTFLVE [Q31S] reads -0.031 ± 0.084; that for KAVLCADHGEKLQLFCQEDGKVICWLCERSWEHRGHHTFLVE [Q31W], -0.593 ± 0.09; that for KAVLCADHGEKLQLFCQEDGKVICWLCERSLEHRGHHTFLVE [Q31L], -0.343 ± 0.088. To KAVLCADHGEKLQLFCQEDGKVICWLCERSKEHRGHHTFLVE [Q31K] belongs -0.103 ± 0.11; to KAVLCADHGEKLQLFCQEDGKVICWLCERSCEHRGHHTFLVE [Q31C], -0.095 ± 0.12; to KAVLCADHGEKLQLFCQEDGKVICWLCERSGEHRGHHTFLVE [Q31G], -0.083 ± 0.055. To KAVLCADHGEKLQLFCQEDGKVICWLCERSAEHRGHHTFLVE [Q31A] belongs -0.121 ± 0.049. With KAVLCADHGEKLQLFCQEDGKVICWLCERSMEHRGHHTFLVE [Q31M], the abundance fitness was -0.057 ± 0.07. The result for KAVLCADHGEKLQLFCQEDGKVICWLCERSQEHRGLHTFLVE [H36L] reads -0.523 ± 0.074. The result for KAVLCADHGEKLQLFCQEDGKVICWLCERSQEHRGYHTFLVE [H36Y] reads -1.03 ± 0.34.

With KAVLCADHGEKLQLFCQEDGKVICWLCERSQEHRGGHTFLVE [H36G], the abundance fitness was -0.442 ± 0.047. The result for KAVLCADHGEKLQLFCQEDGKVICWLCERSQEHRGRHTFLVE [H36R] reads -0.481 ± 0.052; that for KAVLCADHGEKLQLFCQEDGKVICWLCERSQEHRGMHTFLVE [H36M], -0.606 ± 0.15; that for KAVLCADHGEKLQLFCQEDGKVICWLCERSQEHRGWHTFLVE [H36W], -0.781 ± 0.071. To KAVLCADHGEKLQLFCQEDGKVICWLCERSQEHRGDHTFLVE [H36D] belongs -0.399 ± 0.11; to KAVLCADHGEKLQLFCQEDGKVICWLCERSQEHRGKHTFLVE [H36K], -0.558 ± 0.096; to KAVLCADHGEKLQLFCQEDGKVICWLCERSQEHRGEHTFLVE [H36E], -0.355 ± 0.072.

Regarding KAVLCADHGEKLQLFCQEDGKVICWLCERSQEHRGQHTFLVE [H36Q], the abundance fitness was -0.303 ± 0.13. The result for KAVLCADHGEKLQLFCQEDGKVICWLCERSQEHRGSHTFLVE [H36S] reads -0.365 ± 0.077.

For the variant KAVLCADHGEKLQLFCQEDGKVICWLCERSQEHRGAHTFLVE [H36A], the abundance fitness is -0.472 ± 0.055.

For KAVLCADHGEKLQLFCQEDGKVICWLCERSQEHRGHHTQLVE [F39Q], the abundance fitness was 0.139 ± 0.078. Turning to KAVLCADHGEKLQLFCQEDGKVICWLCERSQEHRGHHTNLVE [F39N], the abundance fitness was 0.041 ± 0.11. To KAVLCADHGEKLQLFCQEDGKVICWLCERSQEHRGHHTVLVE [F39V] belongs 0.117 ± 0.061; to KAVLCADHGEKLQLFCQEDGKVICWLCERSQEHRGHHTALVE [F39A], 0.165 ± 0.058; to KAVLCADHGEKLQLFCQEDGKVICWLCERSQEHRGHHTTLVE [F39T], 0.111 ± 0.095. With KAVLCADHGEKLQLFCQEDGKVICWLCERSQEHRGHHTGLVE [F39G], the abundance fitness was 0.093 ± 0.053.

Take KAVLCADHGEKLQLFCQEDGKVICWLCERSQEHRGHHTYLVE [F39Y]: the abundance fitness is 0.161 ± 0.19. The result for KAVLCADHGEKLQLFCQEDGKVICWLCERSQEHRGHHTWLVE [F39W] reads -0.149 ± 0.13; that for KAVLCADHGEKLQLFCQEDGKVICWLCERSQEHRGHHTRLVE [F39R], 0.19 ± 0.061. As to KAVLCADHGEKLQLFCQEDGKVICWLCERSQEHRGHHTPLVE [F39P], the abundance fitness is -0.487 ± 0.36. To KAVLCADHGEKLQLFCQEDGKVICWLCERSQEHRGHHTKLVE [F39K] belongs 0.435 ± 0.26; to KAVLCADHGEKLQLFCQEDGKVICWLCERSQEHRGHHTMLVE [F39M], 0.01 ± 0.15. To KAVLCADHGEKLQLFCQEDGKVICWLCERSQEPRGHHTFLVE [H33P] belongs -0.771 ± 0.43; to KAVLCADHGEKLQLFCQEDGKVICWLCERSQERRGHHTFLVE [H33R], -0.364 ± 0.087; to KAVLCADHGEKLQLFCQEDGKVICWLCERSQEGRGHHTFLVE [H33G], -0.643 ± 0.1.

Take KAVLCADHGEKLQLFCQEDGKVICWLCERSQEARGHHTFLVE [H33A]: the abundance fitness was -0.392 ± 0.1.

As for KAVLCADHGEKLQLFCQEDGKVICWLCERSQETRGHHTFLVE [H33T], the abundance fitness was -0.685 ± 0.26.

With KAVLCADHGEKLQLFCQEDGKVICWLCERSQESRGHHTFLVE [H33S], the abundance fitness is -0.28 ± 0.15. In the case of KAVLCADHGEKLQLFCQEDGKVICWLCERSQECRGHHTFLVE [H33C], the abundance fitness is -0.246 ± 0.36. The result for KAVLCADHGEKLQLFCQEDGKVICWLCERSQEWRGHHTFLVE [H33W] reads -0.804 ± 0.15; that for KAVLCADHGEKLQLFCQEDGKVICWLCERSQEMRGHHTFLVE [H33M], -0.549 ± 0.11.
